B1: 275B (designed binder)
chain: GGSDVEWRYTNISEETQQKSAEFVLEIALRAGTGVTFTTRQGELQIQVHNLDELLAIAMLCYTLGLLLGDHRVQELAKRAVEAWERGDEERVKKLLIEALKRLVETAEEVVRERPGSNLAKLALEIILRAAEALARAEDPESLKEAVKAAEKVVREQPGSNLAKKALEIILRAAEELAKLPDPEALKEAVKAAEKVVREQPGSELAKKALEIIERAAEELKKSPDPEAQKEAKKAEQKVREERPGSGGSGSHHWGSGSHHHHHH
notes: also called LHD275 B; LHD275B
B2: RingA (designed binder)
chain: GSSIFLLSNVSEDAAQLAEELVREISKKEGTEVRFEKDDGFLTIEVKNLSEERLREIAKALQLIVDVANAERVVRERPGSNLAKKALEIILRAAEELAKLDLKASLKAAVRAALKVVAEQPGSNLAKKALEIIQRAAEELAKLPDPEAQKEAQLAAELVRAAELAKSPDPEDLKEAVRLAEEVVRERPGSNLAKAALAIILRAAEELAKLPDPEALKEAVKAAEKVVREQPGSNLAKKALEIILRAAAALANLPDPESRKEADKAADKVRREQPGSELAVVAAIISAVARMGVKMELHPSGNEVKVVIKGLHIKQQRQLYRDVREAAKKAGVEVEIEVEGDTVTIVVRGGGSWGLEHHHHHH
notes: Component of the two-component C4 ring (four copies of each in the ring); also called 29B_53_101A
B3: DFA-1 (designed binder)
chain: TTNFHLINGSEEARQLIEKAVRAISKKEGTEVHFEKSDGTLEIRVKNLHEKREREIKKVIELILEVAAAERIVRERPGSNLAKKALEIILRAAEELAKADVDAALEAAVRAAEKVVREQPGSNLAKKALEIILRAAEELAKLPDPEALKEAVKAAEKVVREQPGSNLAKKALEIILRAAAALANLPDPESRKEADKAADKVRREQPGSELAVVAAIISAVARMGVKMELHPSGNEVKVVIKGLHIKQQRQLYRDVREAAKKAGVEVEIEVEGDTVTIVVRGGSHHWGSGSHHHHHH
notes: Bivalent connector
B4: RingB (designed binder)
chain: GTWQWVLINISEEARQLIEKAVRAISKKEGTEVHFEKDDGVLHIRVKNLHEKRAREIHKVAKLILEVAAAERIVRERPGSNLAKKALEIILRAAEELAKADVDAALEAAVRAAEKVVREQPGSNLAKKAMEIILRAAEELAKLPDPEAQKEAAKAIARRVAAKVEELKRSGTSEDEIAEEVAREISEVIRTLKESGSSYEVICECVARIVAEIVEALKRSGTSEDEIAEIVARVISEVIRTLKESGSSYEVICECVARIVAEIVEALKRSGTSEEEIAEIVARVIQEVIRTLKESGSSYEVIRECLRRILEEVIEALKRSGVDSSEIVLIIIKIAVAVMGVTMEEHRSGNEVKVVIKGLHESQQEELLELVLRAAELAGVRVRIRFKGDTVTIVVRGGGSLEHHHHHH
notes: Component of the two-component C4 ring (four copies of each in the ring); also called 29A_53_4_101B
B5: LHD29 chainB (designed binder)
chain: SSIFLLSNVSEEARQRAEEYVRRISKKEGTEVRFEKDDGFLTIEVKNLSEERLREIAEYLWRVAV
notes: also called LHD29B; 29B
B6: DFB-1 (designed binder)
chain: NTHFIVVHGSEDAAQLAEELVREISKKEGTEVRFEKKDGLLSIEVKNLSEERQREIQKALQLVQDVANAERVVRERPGSNLAKKALEIILRAAEELAKLDLKASLKAAVRAAEKVVREQPGSNLAKKALEIILRAAEELAKLPDPEALKEAVKAAEKVVREQPGSNLAKKALEIILRAAAALANLPDPESRKEADKAADKVRREQPGSELAVVAAIISAVARMGVKMELHPSGNEVKVVIKGLHIKQQRQLYRDVREAAKKAGVEVEIEVEGDTVTIVVRGGSHHWGSGSHHHHHH
notes: Bivalent connector
B7: LHD101 chainB (designed binder)
chain: GRQEKVLKSIEETVRKMGVTMETHRSGNEVKVVIKGLHESQQEQLLEDVLRTAEKQGVRVRIRFKGDTVTIVVRE
notes: also called LHD101B
B8: 274B53 (designed binder)
chain: NTHFIVVHGSEDAAQLAEELVREISKKEGTEVRFEKKDGLLSIEVKNLSEERQREIQKALQLVQDVANAERVVRERPGSNLAKKALEIILRAAEELAKLDLKASLKAAVRAAEKVVREQPGSNLAKKALEIILRAAEELAKLPDPEALKEAVKAAEKVVREQPGSELAKKALEIIERAAEELKKSPDPEAQKEAKKAEQKVREESGSHHWGSGLNDIFEAQKIEWHEGSHHHHHH
notes: also called LHD274B DHR53 stop

Legend:
[1] = molecular target: the molecule itself; assay: SEC titration of the protomer alone at several injection concentrations (Superdex 200, normalised A230); self-association
DF275A-1 = molecular target: T1, DF275A-1; assay: SEC of partial and full mixtures followed at 473 nm (GFP on component C) and negative-stain EM; components as named for the hexamer in the legend of FIG. 16C and in Table 6
T1 construct: Bivalent connector
T1 chain: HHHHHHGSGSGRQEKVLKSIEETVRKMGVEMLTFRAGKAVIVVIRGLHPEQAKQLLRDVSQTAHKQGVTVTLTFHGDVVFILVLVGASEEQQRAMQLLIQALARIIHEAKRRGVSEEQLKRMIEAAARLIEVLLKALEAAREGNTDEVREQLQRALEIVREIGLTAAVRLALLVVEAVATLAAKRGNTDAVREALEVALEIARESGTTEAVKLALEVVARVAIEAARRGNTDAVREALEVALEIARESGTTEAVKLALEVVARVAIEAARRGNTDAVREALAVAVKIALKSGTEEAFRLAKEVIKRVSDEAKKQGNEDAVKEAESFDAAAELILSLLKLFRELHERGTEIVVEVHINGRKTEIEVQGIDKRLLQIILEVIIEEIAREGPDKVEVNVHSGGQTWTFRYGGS
Description: (§1) Complexes and individual components were diluted in 20 mM Tris pH 8.0, 100 mM NaCl. After o/n equilibration of the mixtures at room temperature or 4 degrees C., 500 ul of sample was injected onto a Superdex™ 200 10/300 increase GL (dimers, linear assemblies) or Superose™ 6 increase 10/300 GL (symmetric assemblies) (all columns from GE healthcare) using the absorbance at 230 nm or 473 nm (for GFP tagged components) as read-out. Dimers were mixed at monomer concentrations of 5 μM or higher. Trimer and ABCD tetramer mixtures contained 5 μM of the bivalent connector, and 7.5 μM of each terminal cap (lower absolute concentrations with the same ratios were used for some trimers). ABCA tetramer mixtures contained 5 μM per bivalent connector and 15 μM terminal cap. The hexamer mixture contained 3 μM of components C and D, 3.6 μM of B and E, and 4.4 μM of A and F. The branched assembly shown in FIG. 4A contained 2.8 μM of the trivalent connector and 4 μM of each cap. For the exchange experiment shown in FIG. 5A, the ABC trimer was preincubated at concentrations of 6 μM B and 9 μM each of A and C. C′ was then added to reach a final concentration of 2 μM B, 3 μM each of A and C, and 6 μM C′.
SEC peak fractions were concentrated prior to negative stain EM screening. Samples were then immediately diluted 5 to 150 times in TBS buffer (25 mM Tris pH 8.0, 25 mM NaCl) depending on sample concentration. […]

TF3 = molecular target: T2, TF3; assay: SEC of the trivalent connector TF3, its three caps and the full mixture, with SDS-PAGE of the fractions; components named in the legend
T2 construct: Trivalent connector
T2 chain: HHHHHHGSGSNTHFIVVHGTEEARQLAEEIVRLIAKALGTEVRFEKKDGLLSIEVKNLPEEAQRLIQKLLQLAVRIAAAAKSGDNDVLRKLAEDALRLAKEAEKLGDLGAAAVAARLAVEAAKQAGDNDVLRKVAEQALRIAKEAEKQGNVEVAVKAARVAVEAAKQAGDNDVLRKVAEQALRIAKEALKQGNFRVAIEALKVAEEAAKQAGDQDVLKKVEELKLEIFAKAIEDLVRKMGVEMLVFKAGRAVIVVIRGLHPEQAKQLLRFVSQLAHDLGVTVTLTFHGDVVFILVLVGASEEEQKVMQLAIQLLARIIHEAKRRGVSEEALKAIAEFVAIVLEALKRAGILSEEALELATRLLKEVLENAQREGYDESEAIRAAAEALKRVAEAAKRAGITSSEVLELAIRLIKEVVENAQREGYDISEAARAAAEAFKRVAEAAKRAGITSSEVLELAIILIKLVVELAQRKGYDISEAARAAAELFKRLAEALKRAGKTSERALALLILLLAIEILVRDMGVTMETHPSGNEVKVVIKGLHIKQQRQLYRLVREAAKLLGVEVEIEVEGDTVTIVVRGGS

[2] = molecular target: the molecule itself; assay: SEC and native MS (self-association)
DFB-1 = molecular target: B6; assay: SEC of mixed components; linear tetramer listed in Table 6, neighbours in the chain
Description: as §1

DFB0 = molecular target: T3, DFB0; assay: as above
T3 construct: Bivalent connector
T3 chain: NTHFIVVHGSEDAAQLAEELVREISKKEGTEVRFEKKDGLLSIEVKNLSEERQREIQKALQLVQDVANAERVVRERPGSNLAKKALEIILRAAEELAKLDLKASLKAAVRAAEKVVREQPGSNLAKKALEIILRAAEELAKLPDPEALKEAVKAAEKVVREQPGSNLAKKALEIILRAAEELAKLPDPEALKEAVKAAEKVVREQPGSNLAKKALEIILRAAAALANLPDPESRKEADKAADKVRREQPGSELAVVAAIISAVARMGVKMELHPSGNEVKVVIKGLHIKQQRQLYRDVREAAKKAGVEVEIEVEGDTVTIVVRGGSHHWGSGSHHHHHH
Description: as §1

[3] = molecular target: the molecule itself; assay: BLI conditions (self-association)
101B62 = molecular target: T4, 101B62; assay: SEC of mixed components; linear tetramer listed in Table 6, neighbours in the chain
T4 construct: also called LHD101B62
T4 chain: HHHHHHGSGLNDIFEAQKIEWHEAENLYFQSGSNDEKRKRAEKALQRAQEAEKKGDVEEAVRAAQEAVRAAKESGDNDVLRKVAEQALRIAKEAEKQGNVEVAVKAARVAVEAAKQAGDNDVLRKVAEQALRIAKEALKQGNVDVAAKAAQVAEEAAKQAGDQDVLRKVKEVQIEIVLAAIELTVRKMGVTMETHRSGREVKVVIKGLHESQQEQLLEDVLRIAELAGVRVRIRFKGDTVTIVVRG
Description: as §1

[4] = molecular target: the molecule itself; assay: SEC titration (self-association)
DFA-1 = molecular target: B3; assay: SEC of mixed components; trimer listed in Table 6
Description: as §1

[5] = molecular target: the molecule itself; assay: SEC titration (Superdex 200, normalised A230) of 274B53 and 29B53 alone; self-association

**Q.** Does B1 bind [1]?
**A.** binds

**Q.** Does B1 bind (DF275A-1)?
**A.** binds

**Q.** Does B1 bind (TF3)?
**A.** binds

**Q.** Does B2 bind [2]?
**A.** no binding

**Q.** Does B3 bind (DFB-1)?
**A.** binds

**Q.** Does B3 bind (DFB0)?
**A.** binds

**Q.** Does B4 bind [2]?
**A.** no binding

**Q.** Does B5 bind [3]?
**A.** binds

**Q.** Does B6 bind (101B62)?
**A.** binds

**Q.** Does B7 bind [4]?
**A.** no binding (tested: above 100 µM)

**Q.** Does B8 bind (DFA-1)?
**A.** binds

**Q.** Does B8 bind [5]?
**A.** binds

Reference: patent US20240368233A1 (University of Washington, published 2024)
